Source: paper PMC10514313, “Identification of enzymatic functions of osmo-regulated periplasmic glucan biosynthesis proteins from Escherichia coli reveals a novel glycoside hydrolase family” (Communications Biology, 2023)
Changes are numbered by the printed parent chain. Numbers in names are those of the source.

Assays:
EcOpgD = biological target: T1, EcOpgD (Escherichia coli, UniProt P40120, D388N); experiment: X-ray crystal structure of the complex ([…] Å); type: binding; details: co-crystallised with β-1,2-glucan of average DP 121, Sop13 is the part seen in density (chain B; DP11 in chain A); pH 4.0; subsites -7 to +6; Table 3 prints the mutant as D378N
T1 construct: gene mdoD; 60601 Da; homodimer, Loop A of the other subunit completes the site
T1 sequence (P40120 33-551 D388N): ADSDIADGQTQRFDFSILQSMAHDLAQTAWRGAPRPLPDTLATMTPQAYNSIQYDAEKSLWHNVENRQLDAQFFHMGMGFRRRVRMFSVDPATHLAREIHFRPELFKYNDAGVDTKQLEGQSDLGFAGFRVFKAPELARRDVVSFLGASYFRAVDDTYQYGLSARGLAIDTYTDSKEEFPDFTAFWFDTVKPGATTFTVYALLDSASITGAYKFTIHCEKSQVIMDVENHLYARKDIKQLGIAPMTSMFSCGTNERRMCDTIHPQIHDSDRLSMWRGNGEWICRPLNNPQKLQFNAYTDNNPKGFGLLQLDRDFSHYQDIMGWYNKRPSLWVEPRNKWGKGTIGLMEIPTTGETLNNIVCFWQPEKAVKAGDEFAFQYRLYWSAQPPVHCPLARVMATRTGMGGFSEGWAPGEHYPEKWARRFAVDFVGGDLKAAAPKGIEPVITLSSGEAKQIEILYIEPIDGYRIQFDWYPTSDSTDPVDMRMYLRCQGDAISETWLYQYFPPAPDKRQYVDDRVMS

EcOpgG = biological target: T2, EcOpgG (Escherichia coli, UniProt P33136, D361N); experiment: X-ray crystal structure of the complex ([…] Å); type: binding; details: crystallised and soaked with β-1,2-glucan of average DP 17.7, Sop16 is the part seen in density; pH 5.0
T2 construct: gene mdoG; 56543 Da; homodimer
T2 sequence (P33136 23-511 D361N): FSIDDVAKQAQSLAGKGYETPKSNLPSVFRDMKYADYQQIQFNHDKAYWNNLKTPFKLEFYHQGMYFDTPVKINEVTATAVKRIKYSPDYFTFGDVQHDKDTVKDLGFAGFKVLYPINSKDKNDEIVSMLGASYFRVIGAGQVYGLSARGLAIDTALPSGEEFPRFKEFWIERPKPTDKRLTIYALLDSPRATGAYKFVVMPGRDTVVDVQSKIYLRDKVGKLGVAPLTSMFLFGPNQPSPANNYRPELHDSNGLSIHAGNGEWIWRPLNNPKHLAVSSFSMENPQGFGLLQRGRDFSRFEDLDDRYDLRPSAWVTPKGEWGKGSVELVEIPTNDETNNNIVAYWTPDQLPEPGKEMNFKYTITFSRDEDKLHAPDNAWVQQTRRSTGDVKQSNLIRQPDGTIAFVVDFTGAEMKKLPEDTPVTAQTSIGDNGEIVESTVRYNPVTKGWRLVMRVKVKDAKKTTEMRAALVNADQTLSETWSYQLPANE

[1] = biological target: the molecule itself; experiment: SEC; Superdex 200GL (24 ml), 20 mM Tris-HCl pH 7.5, 100 mM NaCl, 0.5 mg/mL protein loaded, 0.3 mL/min; molecular weight from marker proteins
[2] = biological target: the molecule itself; experiment: crystal structure; ligand-free EcOpgD D388N, 2.95 Å, 12 monomers (six dimers) in the asymmetric unit; 0.1 M Tris-HCl pH 8.5, 0.1 M trimethylamine-N-oxide, 17% PEG 2000 MME, 20 °C
[3] = biological target: the molecule itself; experiment: crystal structure; EcOpgG D361N with β-1,2-glucan, 1.81 Å, one chain in the asymmetric unit, dimer with a symmetry mate; 0.1 M MMT pH 5.0, 27% PEG 400, 20 °C

For OC[C@H]1O[C@@H](O[C@H]2[C@H](O[C@H]3[C@H](O[C@H]4[C@H](O[C@H]5[C@H](O[C@H]6[C@H](O[C@H]7[C@H](O[C@H]8[C@H](O[C@H]9[C@H](O[C@H]%10[C@H](O[C@H]%11[C@H](O[C@H]%12[C@H](O[C@H]%13C(O)O[C@H](CO)[C@@H](O)[C@@H]%13O)O[C@H](CO)[C@@H](O)[C@@H]%12O)O[C@H](CO)[C@@H](O)[C@@H]%11O)O[C@H](CO)[C@@H](O)[C@@H]%10O)O[C@H](CO)[C@@H](O)[C@@H]9O)O[C@H](CO)[C@@H](O)[C@@H]8O)O[C@H](CO)[C@@H](O)[C@@H]7O)O[C@H](CO)[C@@H](O)[C@@H]6O)O[C@H](CO)[C@@H](O)[C@@H]5O)O[C@H](CO)[C@@H](O)[C@@H]4O)O[C@H](CO)[C@@H](O)[C@@H]3O)O[C@H](CO)[C@@H](O)[C@@H]2O)[C@H](O)[C@@H](O)[C@@H]1O (stereo partly drawn) [Sop13], which “X-ray crystal structure of the complex (2.06 Å)” value (EcOpgD) is on record?
Its value is “electron densities of β-1,2-glucans with DP11 and DP13 (Sop11 and Sop13, respectively) were clearly observed”.

Which “X-ray crystal structure of the complex (1.81 Å)” value (EcOpgG) does the source give for OC[C@H]1O[C@@H](O[C@H]2[C@H](O[C@H]3[C@H](O[C@H]4[C@H](O[C@H]5[C@H](O[C@H]6[C@H](O[C@H]7[C@H](O[C@H]8[C@H](O[C@H]9[C@H](O[C@H]%10[C@H](O[C@H]%11[C@H](O[C@H]%12[C@H](O[C@H]%13[C@H](O[C@H]%14[C@H](O[C@H]%15[C@H](O[C@H]%16C(O)O[C@H](CO)[C@@H](O)[C@@H]%16O)O[C@H](CO)[C@@H](O)[C@@H]%15O)O[C@H](CO)[C@@H](O)[C@@H]%14O)O[C@H](CO)[C@@H](O)[C@@H]%13O)O[C@H](CO)[C@@H](O)[C@@H]%12O)O[C@H](CO)[C@@H](O)[C@@H]%11O)O[C@H](CO)[C@@H](O)[C@@H]%10O)O[C@H](CO)[C@@H](O)[C@@H]9O)O[C@H](CO)[C@@H](O)[C@@H]8O)O[C@H](CO)[C@@H](O)[C@@H]7O)O[C@H](CO)[C@@H](O)[C@@H]6O)O[C@H](CO)[C@@H](O)[C@@H]5O)O[C@H](CO)[C@@H](O)[C@@H]4O)O[C@H](CO)[C@@H](O)[C@@H]3O)O[C@H](CO)[C@@H](O)[C@@H]2O)[C@H](O)[C@@H](O)[C@@H]1O (stereo partly drawn) [Sop16] here?
Its value is “In the catalytic pocket of the complex, the electron density of a Sop16 molecule was observed”.

B1: OpgD from E. coli (EcOpgD), wild type, without signal sequence, C-terminal His6-tag (enzyme, Escherichia coli, UniProt P40120 33-551, looked up)
chain: T1 sequence (P40120 33-551 D388N) with N356D
notes: OpgD (glucans biosynthesis protein D) of Escherichia coli, gene amplified from a colony of E. coli BL21(DE3), GenBank CAQ31910.2; theoretical mass 60601 Da; Cloned between the XhoI and NdeI sites of pET30a; also called MdoD; source: E. coli BL21(DE3), purified (HisTrap FF crude)
B1 was tested. Which “stoichiometry N” value [1] did it give?
Its value is 2.

B2: EcOpgD D388N mutant, without signal sequence, C-terminal His6-tag (enzyme, Escherichia coli, UniProt P40120 33-551, looked up)
chain: T1 sequence (P40120 33-551 D388N)
notes: made from the EcOpgD plasmid of m1; text and methods say D388N; source: E. coli BL21(DE3), purified (HisTrap FF crude)
Does B2 bind [2]?
Result: binds

B3: OpgG from E. coli (EcOpgG), wild type, without signal sequence, C-terminal His6-tag (enzyme, Escherichia coli, UniProt P33136 23-511, looked up)
chain: T2 sequence (P33136 23-511 D361N) with N339D
notes: OpgG (glucans biosynthesis protein G) of Escherichia coli, gene amplified from a colony of E. coli BL21(DE3), GenBank CAQ31569.1; theoretical mass 56543 Da; Cloned between the XhoI and NdeI sites of pET30a; also called MdoG; source: E. coli BL21(DE3), purified (HisTrap FF crude)
With B3 as the molecule, how does the “stoichiometry N” value [1] read?
The value was 2.

B4: EcOpgG D361N mutant, without signal sequence, C-terminal His6-tag (enzyme, Escherichia coli, UniProt P33136 23-511, looked up)
chain: T2 sequence (P33136 23-511 D361N)
notes: made from the EcOpgG plasmid of m2; One monomer in the asymmetric unit; the second chain of the dimer is a symmetry mate; source: E. coli BL21(DE3), purified (HisTrap FF crude)
Does B4 bind [3]?
Result: binds
